From patent publication US20030176331A1 come the findings set out here.

This assay addresses high molecular weight glycoprotein gp240 on melanoma cells (human) (UniProt Q6UVK1). Kind of assay: cell-based or functional assay.
UniProt Q6UVK1, sequence (Q6UVK1 30-2322): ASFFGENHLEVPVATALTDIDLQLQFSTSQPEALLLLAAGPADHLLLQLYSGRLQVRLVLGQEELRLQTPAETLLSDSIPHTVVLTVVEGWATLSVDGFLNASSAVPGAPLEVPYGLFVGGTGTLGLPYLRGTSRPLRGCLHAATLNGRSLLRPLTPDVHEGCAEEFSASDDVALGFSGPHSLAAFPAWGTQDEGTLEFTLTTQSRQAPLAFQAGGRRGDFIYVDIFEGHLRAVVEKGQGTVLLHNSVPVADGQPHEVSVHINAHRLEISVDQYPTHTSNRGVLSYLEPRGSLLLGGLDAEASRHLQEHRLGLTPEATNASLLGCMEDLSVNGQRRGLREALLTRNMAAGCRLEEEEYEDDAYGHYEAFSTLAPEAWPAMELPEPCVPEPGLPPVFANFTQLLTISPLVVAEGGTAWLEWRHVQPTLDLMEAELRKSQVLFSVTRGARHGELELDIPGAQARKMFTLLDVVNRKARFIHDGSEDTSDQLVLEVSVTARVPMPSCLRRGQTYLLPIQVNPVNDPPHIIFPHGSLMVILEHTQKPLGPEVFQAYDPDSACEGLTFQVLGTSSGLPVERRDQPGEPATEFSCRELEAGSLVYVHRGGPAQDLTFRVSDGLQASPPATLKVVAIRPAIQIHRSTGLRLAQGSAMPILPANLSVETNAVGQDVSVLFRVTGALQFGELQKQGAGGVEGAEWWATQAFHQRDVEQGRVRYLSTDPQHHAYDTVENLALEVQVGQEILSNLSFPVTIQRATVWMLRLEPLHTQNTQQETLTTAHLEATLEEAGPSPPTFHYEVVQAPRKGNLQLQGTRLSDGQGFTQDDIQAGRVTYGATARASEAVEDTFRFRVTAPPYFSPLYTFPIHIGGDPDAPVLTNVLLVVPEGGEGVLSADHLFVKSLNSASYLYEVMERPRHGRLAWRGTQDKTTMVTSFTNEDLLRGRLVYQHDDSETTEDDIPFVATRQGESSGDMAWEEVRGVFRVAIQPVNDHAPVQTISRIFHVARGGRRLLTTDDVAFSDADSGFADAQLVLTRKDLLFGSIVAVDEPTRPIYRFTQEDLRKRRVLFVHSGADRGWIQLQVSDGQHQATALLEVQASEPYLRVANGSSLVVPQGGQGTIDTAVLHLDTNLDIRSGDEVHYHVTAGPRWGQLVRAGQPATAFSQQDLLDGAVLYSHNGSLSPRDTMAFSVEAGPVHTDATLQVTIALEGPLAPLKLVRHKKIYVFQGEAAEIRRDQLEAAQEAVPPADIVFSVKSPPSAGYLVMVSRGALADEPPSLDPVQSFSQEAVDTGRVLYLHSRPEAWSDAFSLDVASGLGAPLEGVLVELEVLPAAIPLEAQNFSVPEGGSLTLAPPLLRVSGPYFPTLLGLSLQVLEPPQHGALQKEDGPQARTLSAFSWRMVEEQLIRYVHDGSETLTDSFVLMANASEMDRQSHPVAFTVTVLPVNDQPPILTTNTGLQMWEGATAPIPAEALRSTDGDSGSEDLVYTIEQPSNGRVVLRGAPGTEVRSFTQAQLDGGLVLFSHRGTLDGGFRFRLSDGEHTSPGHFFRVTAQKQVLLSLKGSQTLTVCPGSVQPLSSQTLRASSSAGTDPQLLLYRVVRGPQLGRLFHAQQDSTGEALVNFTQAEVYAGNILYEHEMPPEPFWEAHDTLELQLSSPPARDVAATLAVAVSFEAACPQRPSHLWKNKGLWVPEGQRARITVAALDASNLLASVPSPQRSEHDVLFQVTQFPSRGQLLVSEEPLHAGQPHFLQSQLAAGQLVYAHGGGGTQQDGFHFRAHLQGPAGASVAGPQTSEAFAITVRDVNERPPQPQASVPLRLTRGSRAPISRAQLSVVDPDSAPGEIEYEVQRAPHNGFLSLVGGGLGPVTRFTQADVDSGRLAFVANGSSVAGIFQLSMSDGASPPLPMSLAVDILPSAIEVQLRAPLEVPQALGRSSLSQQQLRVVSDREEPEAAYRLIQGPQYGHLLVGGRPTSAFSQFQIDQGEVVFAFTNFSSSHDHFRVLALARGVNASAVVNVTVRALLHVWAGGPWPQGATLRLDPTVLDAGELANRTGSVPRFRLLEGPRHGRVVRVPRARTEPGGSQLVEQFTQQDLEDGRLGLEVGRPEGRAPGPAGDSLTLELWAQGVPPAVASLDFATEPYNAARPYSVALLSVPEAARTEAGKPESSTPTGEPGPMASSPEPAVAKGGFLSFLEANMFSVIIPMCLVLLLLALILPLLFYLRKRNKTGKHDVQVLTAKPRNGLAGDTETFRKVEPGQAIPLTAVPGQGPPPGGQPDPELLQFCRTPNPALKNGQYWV

In turn, IgG ZME-018-gelonin chemical conjugate yielded an IC50, 72 h in vitro cytotoxicity on antigen-positive A375 human melanoma cells of 8 nM.

In turn, scfvMEL/rGel fusion construct had an IC50, 72 h in vitro cytotoxicity on antigen-positive A375 human melanoma cells of 8 nM.
